Reference: patent publication US20250011391A1, “ULTRA LIGHT-SENSITIVE NEUROPSIN-BASED OPTOGENETIC TOOL FOR ACTIVATING G q-COUPLED SIGNALING AND/OR ACTIVATING CELLS” (GENANS BIOTECHNOLOGY CO., LTD, priority 2021, published 2025)
“Also recorded” adds a separate entry of the source. Numbered stars: 1 amine (or outer) side, 2 acyl side, 3 side chain; on linkers, the order of the positions; unused ones are H or OH. Bridge positions count the residues as written; N and C are the ends. Square brackets hold non-standard residues; d marks the D form. Peptide text beside a SMILES is read from it. X1 = CC(=O)NC(C(=O)OC(C(C)C)C(N[*:1])C(=O)[*:2])C(O)C(C)C; PhLac = O=C(O)[CH](O)Cc1ccccc1; NMeT = CN[CH](C(=O)O)[CH](C)O; NMeA = CN[CH](C)C(=O)O; NMeDha = C=C(NC)C(=O)O

Key:
Gq proteins [1] = molecular target: Gq proteins
Gq proteins [2] = molecular target: Gq proteins; remark: listed apart in the source
[3] = test system: astrocytes within the mouse S1 cortex; experiment: In vivo two-photon imaging (920 nm) of ATP release (GRABATP sensor) following astrocyte activation; conditions: eight hours after intraperitoneal LPS
[4] = test system: Gq signaling in HEK 293T cells; experiment: IP1 accumulation in Opn5-expressing HEK 293T cells; format: cell-based; conditions: 100 μW/mm2, 470 nm; for effect on light-evoked IP1 accumulation in cOpn5-expressing cells: YM-254890 treatment, 3 min; for light-induced increase in the level of inositol phosphate (IP1): continuous light 3 min
Experimental: (§1) Whether heterologous expression of the Opn5 orthologs from chicken, turtles, humans and mice (which share 80-90% protein sequence identity) have the capacity to mediate blue light-induced Gq signaling activation within HEK 293T cells is tested (FIG. 1a and table 7). Blue light for stimulation and the red intracellular calcium indicator Calbryte™ 630 AM dye are used to monitor the relative Ca^2+ response (FIG. 1b).
f, YM suppressed the IP1 accumulation evoked by continuous light stimulation (3 min; 100 μW/mm^2; 470 nm) in cOpn5-expressing HEK 293T cells (Left). ***P<0.0001, *P=0.0128; Tukey's multiple comparisons test.

[5] = test system: Gq signaling in HEK 293T cells; experiment: Light-induced Ca2+ signal (Calbryte 630 AM dye) in opsin-expressing HEK 293T cells; format: cell-based; conditions: for light-induced increase in Ca2+ signal: blue light 10 s, 100 μW/mm2, 488 nm, no exogenous retinal
Experimental: as §1
b, Pseudocolor images of the Ca2+ signal before and after blue light stimulation (10 s; 100 μW/mm^2; 488 nm) in HEK 293T cells expressing Opn5 from three species (Gallus gallus, Homo sapiens, and Mus musculus). Scale bar, 10 μm.
Characterizing the light-activating properties of cOpn5 heterologously expressed in HEK 293T cells is performed. […] The effects of different light durations on cOpn5-expressing HEK 293T cells are tested. […] Therefore, the light sensitivity of cOpn5 is 3-4 orders of magnitude higher than the reported values of the light-sensitive Gq-coupled GPCRs and even 2-3 orders higher than those of the commonly used optogenetic tool Channelrhodopsin-2 (ChR2)(Lin, 2011; Zhang et al., 2006) (table 8).
The performance of cOpn5 to that of opto-a1AR, a chimera GPCR engineered by mixing rhodopsin with Gq-coupled adrenergic receptor is compared. […] The performance of cOpn5 to that of opn4, a natural opsin which was reported as a tool for Gq signaling activating is also compared. […] Therefore, compared with existing opsin-based tools (opto-a1AR and opn4), cOpn5 is much more light-sensitive (˜3 orders more sensitive), requires much shorter time exposure (10 ms vs. 60 s), and produces stronger responses. […]
Experiments description: the following table 9 is a partial list of cOpn5 orthologs from vertebrata tested in the present invention. Whole genes of all reported opsin5 orthologs from vertebrata (the vertebrates subphylum, including rotundia, cartilaginous fishes, bony fishes, Amphibia, reptila, ornitha and mammals) are synthetized, and expressed in HEK 293T cells. Calcium imaging with or without 470 nm blue light stimulation is performed to test the sensitivity of the opsin 5 orthologs in response to light. The time course of light-induced calcium signal reveal the activated degree of Gq signaling pathway and the sensitivity of these orthologs.

Gi signaling = experiment: cAMP levels in Opn5-expressing HEK 293T cells after photostimulation; format: cell-based; conditions: with retinal (10 μM retinal preincubation)
Experimental: as §1
f, Light has no effect on cAMP levels (10 μM forskolin preincubation) in cOpn5-expressing HEK 293T cells without additional retinal in the medium (left panel).

in vivo astrocytes = conditions: cited from earlier work
HEK293-TRPC3 cells = conditions: cited from earlier work

opto-a1AR (receptor)
light-induced Ca^2+ signal in HEK 293T cells (Gq proteins [1]): 0.5 ΔF/F

Chicken Opn5 (opsin 5, neuropsin) (receptor)
light-induced Ca^2+ signal (Calbryte 630 AM) in HEK 293T cells (Gq proteins [2]): 3 ΔF/F

Turtle Opn5 (opsin 5) (receptor)
light-induced Ca^2+ signal (Calbryte 630 AM) in HEK 293T cells (Gq proteins [2]): 3 ΔF/F

human OPN4 (melanopsin) (from UniProt Q9UHM6) (receptor)
light-induced Ca^2+ signal in HEK 293T cells (Gq proteins [1]): 1 ΔF/F

lipopolysaccharide [LPS]
increase of ATP flash events over basal condition [3]: ~6 fold
ATP flash frequency ([3]; mice expressing GRABATP alone): ~2 flashes per min

C=C1C(=O)NC(C)C(=O)N(C)C(C)C(=O)NC(C(OC(=O)C(NC(C)=O)C(O)C(C)C)C(C)C)C(=O)N(C)C(C(C)OC)C(=O)OC(C)C(NC(C)=O)C(=O)OC(Cc2ccccc2)C(=O)N1C (centres unmarked) [YM-254890, reference compound] (Ac-T[PhLac][NMeDha]A[NMeA][X1][NMeT](Me); ester 1-C; configuration not given here)
effect on light-evoked IP1 accumulation in cOpn5-expressing cells [4]: reduced
effect on light-evoked IP1 accumulation in cOpn5-expressing cells ([4]; listed as YM): suppressed
effect on cOpn5-mediated, light-induced Ca2+ signals ([5]; YM-254890 10 nM preincubation, cOpn5-expressing HEK 293T cells): reversibly abolishes; also recorded: reversibly blocked
effect on turtle Opn5-mediated, light-induced Ca2+ signals ([5]; YM-254890 10 nM, turtle Opn5-expressing HEK 293T cells): reversibly blocked

hOPN5: Human (Homo sapiens) Opn5 ortholog, GenBank AY377391.1 [reference compound]
light-induced increase in the level of inositol phosphate (IP1) ([4]; listed as human OPN5): not
light-induced increase in the level of inositol phosphate (IP1) ([4]; listed as human Opn5): no significant difference
effect of blue light illumination on cAMP levels (Gi signaling): effectively reduces cAMP levels
light-induced increase in Ca2+ signal [5]: no light effect

B1: mOpn5: Mouse (Mus musculus) Opn5 ortholog, GenBank NM_181753.4 (protein)
chain: MALNHTALPQDERLPHYLRDEDPFASKLSWEADLVAGFYLTIIGILSTFGNGYVLYMSSRRKKKLRPAEIMTINLAVCDLGISVVGKPFTIISCFCHRWVFGWFGCRWYGWAGFFFGCGSLITMTAVSLDRYLKICYLSYGVWLKRKHAYICLAVIWAYASFWTTMPLVGLGDYAPEPFGTSCTLDWWLAQASGGGQVFILSILFFCLLLPTAVIVFSYAKIIAKVKSSSKEVAHFDSRIHSSHVLEVKLTKVAMLICAGFLIAWIPYAVVSVWSAFGRPDSIPIQLSVVPTLLAKSAAMYNPIIYQVIDYRFACCQAGGLRGTKKKSLEDFRLHTVTAVRKSSAVLEIHPESSSRFTSAHVMDGESHSNDGDCGKK
effect of blue light illumination on cAMP levels (Gi signaling): effectively reduces cAMP levels
light-induced increase in Ca2+ signal [5]: no light effect

B2: human melanopsin: a natural opsin (melanopsin, Opn4) reported as a tool for Gq signaling activating (protein)
chain: MNPPSGPRVPPSPTQEPSCMATPAPPSWWDSSQSSISSLGRLPSISPTAPGTWAAAWVPLPTVDVPDHAHYTLGTVILLVGLTGMLGNLTVIYTFCRSRSLRTPANMFIINLAVSDFLMSFTQAPVFFTSSLYKQWLFGETGCEFYAFCGALFGISSMITLTAIALDRYLVITRPLATFGVASKRRAAFVLLGVWLYALAWSLPPFFGWSAYVPEGLLTSCSWDYMSFTPAVRAYTMLLCCFVFFLPLLIIIYCYIFIFRAIRETGRALQTFGACKGNGESLWQRQRLQSECKMAKIMLLVILLFVLSWAPYSAVALVAFAGYAHVLTPYMSSVPAVIAKASAIHNPIIYAITHPKYRVAIAQHLPCLGVLLGVSRRHSRPYPSYRSTHRSTLTSHTSNLSWISIRRRQESLGSESEVGWTHMEAAAVWGAAQQANGRSLYGQGLEDLEAKAPPRPQGHEAETPGKTKGLIPSQDPRM
effect of light on Ca2+ signals without ATR ([5]; OPN4-expressing cells, 25 s light, without ATR): lack of effect
Light Sensitivity ([5]; Table 8, HEK 293T): 40 mW/mm^2
Response amplitude: Ca2+ response amplitude ([5]; Table 8, HEK 293T, light as in the row's sensitivity and duration columns): ~0.646 (ΔF/F)
Ca2+ signal increase ([5]; opn4-expressing cells, 25 s, 40 mW/mm2, additional retinal): ~1 ΔF/F
Light Sensitivity (in vivo astrocytes): 7 mW/mm^2
Response amplitude: Ca2+ event frequence (in vivo astrocytes): ~2 (ΔF/F)
change in Ca2+ amplitude (in vivo astrocytes): no significant

B3: mouse melanopsin (Opn4): mouse melanopsin, literature optogenetic tool in Table 8 (protein, UniProt Q9QXZ9 1-521, looked up)
Melanopsin: MDSPSGPRVLSSLTQDPSFTTSPALQGIWNGTQNVSVRAQLLSVSPTTSAHQAAAWVPFPTVDVPDHAHYTLGTVILLVGLTGMLGNLTVIYTFCRNRGLRTPANMFIINLAVSDFLMSVTQAPVFFASSLYKKWLFGETGCEFYAFCGAVFGITSMITLTAIAMDRYLVITRPLATIGRGSKRRTALVLLGVWLYALAWSLPPFFGWSAYVPEGLLTSCSWDYMTFTPQVRAYTMLLFCFVFFLPLLIIIFCYIFIFRAIRETGRACEGCGESPLRQRRQWQRLQSEWKMAKVALIVILLFVLSWAPYSTVALVAFAGYSHILTPYMSSVPAVIAKASAIHNPIIYAITHPKYRVAIAQHLPCLGVLLGVSGQRSHPSLSYRSTHRSTLSSQSSDLSWISGRKRQESLGSESEVGWTDTETTAAWGAAQQASGQSFCSQNLEDGELKASSSPQVQRSKTPKVPGPSTCRPMKGQGARPSSLRGDQKGRLAVCTGLSECPHPHTSQFPLAFLEDDVTLRHL
Light Sensitivity (HEK293-TRPC3 cells; (500 nm)): 1e+15 photons s^−1 cm^−2
Response amplitude: Ca2+ response ampitude (HEK293-TRPC3 cells): ~0.1 (ΔF/F)

B4: tOpn5: Turtle (Chelonia mydas) Opn5 ortholog, SEQ ID NO:2, GenBank XM_007068312.4 (protein)
chain: MASNHSTSPQDDHLPHYLQDEDPFASKLSREADIVAGFYLTIIGVLSTFGNGYVLFMSLKRKKKLKPAEIMTVNLAMCDLGISVVGKPFSIISFFSHRWVFGWLGCRWYGWAGFFFGCGSLITLTAVSLDRYLKICHLTYGTWLKRHHAFICLAIIWAYATFWATVPFAGLGNYAPEPFGTSCTLDWWLAQGSVAGQAFILNILFFCLLLPTAVIVFSYVKIIAKVKSSAKEVAHYDTRIQNSHVLEIKLTKVAMLICAGFLIAWIPYAVVSVWSAFGQPDSVPIQVSVIPTLLAKSAAMYNPIIYQVIDCKFSCCRSLQKKSSLKKSRLYTISGNREPTEMNETHLEL
modifications: Chelonia mydas
light-induced increase in Ca2+ signal [5]: ~3 ΔF/F
